Source: article PMC5389561 (Nucleic Acids Research, 2016)

Tests used:
[1] = biological target: recombinant Csm3 (untagged) (S. epidermidis); test: native gel or EMSA
[2] = biological target: Csm2 with a 6-His tag on the N-terminus (Csm2^H6N) (S. epidermidis RP62a); test: co-purification
[3] = biological target: Csm5–Smt3 (Csm5 with an N-terminal His10Smt3 tag) (S. epidermidis); test: pull-down
native gel or EMSA = biological target: the molecule itself; test: native gel or EMSA

## recombinant Csm3 (untagged) (natural protein)
[1]
  stoichiometry N: 6

## Csm3 D179A (in the Cas10–Csm complex) (natural protein)
[2]
  % Csm3 band intensity of the total band intensity of the purified complex: 12%

## Csm3 (wild type, in the Cas10–Csm complex) (natural protein)
[2]
  % Csm3 band intensity of the total band intensity of the purified complex: 18%

B1: recombinant polynucleotide phosphorylase (PNPase), untagged (enzyme, S. epidermidis RP62a, UniProt Q5HPR7 1-701, looked up)
chain: MSQEKKVFKTEWAGRSLTIETGQLAKQANGAVLVRYGDTVVLSTATASKEPRDGDFFPLTVNYEEKMYAAGKIPGGFKKREGRPGDEATLTARLIDRPIRPLFPKGYRHDVQIMNIVLSADPDCSPEMAAMIGSSMALSVSDIPFQGPIAGVNVGYIDGKYVINPSVADKEISRLDLEVAGHKDAVNMVEAGASEITESEMLEAIFFGHEEIKRLVAFQQEIIDHIQPIKQEFVPVERDEDLVEKVKSLTEDKGLKDTVLTFDKQQRDENLDALKEEVVGHFLDEEDPENETLVKEVYAILNDLIKEEVRRLIADEKIRPDGRKVDEIRPLESEVGLLPRAHGSGLFTRGQTQALSVLTLGALGDYQLIDGLGPEVEKRFMHHYNFPNFSVGETGPVRAPGRREIGHGALGERALRYIIPDTQDFPYTIRIVSEVLESNGSSSQASICGSTLALMDAGVPIKAPVAGIAMGLVTRDDSYTILTDIQGMEDALGDMDFKVAGTKDGITAIQMDIKIDGLTREVIEEALEQARQGRLAIMDHMLHTIEQPREELSAYAPKVVTMSINPDKIRDVIGPGGKKINEIIDETGVKLDIEQDGTIFIGAVDQAMINRAKEIIEDITREAEVGQVYHAKVKRIEKYGAFVELFPGKDALLHISQISQERINKVEDVLKIGDTIEVKITEIDKQGRVNASHKVLEQSKN
[3]
  PNPase signal intensity as % of total signal in the eluate: 5.9%
Native gel or EMSA
  stoichiometry N: 3
